{
  "source": "paper PMC2615621",
  "about": "(Nucleic Acids Research, 2008)",
  "experiment_in_all_cases": "native gel or EMSA",
  "key": {"[1]": {"molecular_target": "…3 (SEP3), full-length, in vitro translated (Arabidopsis thaliana) (UniProt O22456)"}, "[2]": {"molecular_target": "…3 (SEP3), full-length, in vitro translated (Arabidopsis thaliana) (UniProt O22456)", "remark": "listed apart in the source"}, "native gel or EMSA [3]": {"molecular_target": "the molecule itself"}, "native gel or EMSA [4]": {"molecular_target": "the molecule itself", "remark": "listed apart in the source"}},
  "note": "Where two headings read alike, the source gives them in different places.",
  "data": [
    {"molecule": "…3 (SEP3), full-length, in vitro translated (from UniProt O22456 1-251) (natural protein)", "values": [
      {"measurement": "apparent Kd1/Kd2 (cooperativity of two dimers on DNA)", "setting": "[1]", "result": 83},
      {"measurement": "stoichiometry N", "setting": "[1]", "result": 2},
      {"measurement": "stoichiometry N", "setting": "[2]", "result": 4}
    ]},
    {"molecule": "SEP3ΔC, C-terminally truncated SEP3, in vitro translated (domain or fragment, 35S-methionine in some experiments) MGRGRVELKRIENKINRQVTFAKRRNGLLKKAYELSVLCDAEVALIIFSNRGKLYEFCSSSSMLRTLERYQKCNYGAPEPNVPSREALAVELSSQQEYLKLKERYDALQRTQRNLLGEDLGPLSTKELESLERQLDSSLKQIRALRTQFMLDQLNDLQSKERMLTETNKTLRLRLADGYQMPLQLNPN", "values": [
      {"measurement": "stoichiometry N", "setting": "native gel or EMSA [3]", "result": 2},
      {"measurement": "apparent Kd1/Kd2 (cooperativity of two dimers on DNA)", "setting": "native gel or EMSA [4]", "result": 89}
    ]}
  ]
}
